# Results taken from the domain aggregation screens of Martell et al. (2025).
# Test: soluble fraction after stress (log2 fold change); higher = more stays soluble; pooled small domains, quantitative proteomics
# Settings: stress: 50 degC
# In short: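 Each library was heated to 50°C as a stress step. The libraries, made up of small protein domains, were pooled and analysed at high throughput by quantitative proteomics. The reported value is the base-two logarithm of the fold change in each protein's soluble amount after stress, taken as a measure of aggregation propensity. The higher the value, the more protein stays in solution.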
row,Sequence,soluble fraction (log2)
1,HMSYSYIYNYALKVKMDISSTGGKKPYAYYYYDHSYKLAEEILSLSEETESIELQNKYDELKDFYENP,-1.32
2,HMQQDVLKLKSGGNYKGEYINIESAYVLFKPEGGNATQRIKVNEIQMLKLADGTEVIFGGRVK,0.0478
3,HMQRNLILKLDTDQPEIYKKLESIFVEINGLLVPFFIEKIIWSKQDSLNILFKNSSEALVEQLIGKNVFLP,0.0989
4,HMSKHATLLEALAELTVKLKPHTQLPSERQLSEDFGVSRMTLRRAIDVMQSRGYIYTVPSKGLYVSEP,-1.59
5,HMTNVIPKAMAPFNGSTIIADGIKNIKDHIDNLYITVGYKGATLSEHVINKGVSAVFNTTGKGNAWWVYN,0.0606
6,HMIIDTELMTRVMKFGFSQADASDLVAQHSDDLLRTAISRVEARAESKGMTPLETPAGYFRWTLQDLVRNP,-1.24
7,HMTVTMADISQAYNEKRYLTTISLSNTYLTFAKPTTELLSIRYRTYFIIGKYAESLTEIAKL,-0.173
8,HMELEQLKSQLTGFLKANREQIFTAQNLADGLRMTDSQGYKQVVNALNASVRDGDVIDIKNGYQYNKN,0.0729
9,HMPPENVSVRREQIAEDKKTVYNVWVTKGNKTVLYSKVVYAWGGVYFFRDLNTSISENMYKQADAGLVN,0.0555
10,HMVSINETAFIQIKNSSATEIKEKITALKLDELKNVTITADIRTNKLIVVGPKATINKIQELVIELDTES,0.281
11,HMIVLPGEELEVHIVQEGKEDGQGVAYLDDGTMVVVEGGRPYVDSFAYVAVTRVLQTGAGRIIFAHPTR,-0.832
12,HMASALDVALNDFAEMRKKMRKPLTDRALALTLSELEKLAPGNDEKKIAILNQSIQRGWQGVFPLK,-0.162
13,HMKTMSLSSIEKAIYKTKYENEPTSQRLSRIESSVFGTNFSQDSESERIARISSAINAQKSAK,0.125
14,HMYSIDNPPDWLKNLPKGAIRIGVEVFNQVLSKADDEDRARMAAWSAIKAKYEKADDGQWQPKAA,-0.0798
15,HMPGVLEVDTGGVAAVAYVDGVEVGRVPGELQIAAGTKTLMLKADRYLDYVQSLEIDGLGKRQLLVATLQS,-0.25
16,HMQTTQQLIRNLRLKQAATLLADKRHSITEVATLTGFTHPTYFATAFREMFGVSPSEYMEQHI,-0.86
17,HMRGYGDRIRILRERAGITIEQLAERLGVAPYFIRRTELSEVYPTKPYIEALADVLNIDASYLARHI,-1.81
18,HMGVAFAPVEKIKHTKTGNELYAVKLAGRVEAEVFGQLRQKAKEYDGYYSKFSRAFLFSTPEDAEAFRAE,0.0208
19,HMTYTMVAYGSQGDAVRQLQSELNRHGYQLDEDGVFGKKTRAAVRDYQKKNSLRLDGIAGDETWGSLLA,0.324

row,Sequence,soluble fraction (log2)
1,HMNNWYESSIKSLVEEYFREHGFSVVFDSSEFWDVFIEKYHKQIPSSQIALFDQVAAEARSYAFNKK,0.116
2,HMVDQVDKDRFLEALTQLGGSAGNVRLRETLQWEEEVYVIIKDALVKSGTILTGRGRGGSVLLASA,-1.12
3,HMDPPISNDARNAINAKLMKFSELHPNEMKKLVEAYKKEFKVSKISPITLARQGEFLSHAISKIDDT,0.0248
4,HMNKFRVGDEVEIVKLDKTIQHFGGEEVLSPVGTKTYITYVDVTGKEIEIDKDIYSYHADDLTLV,0.147
5,HMKLHPRDQERTRAISARGERLYAVTVGDLRRRIGEMLEWFGRQIESQEPMRVAKAARRITDFFDQVEAFT,-2.06
6,HMNLDVPGIIKRAKQALNLKRDSELAEFLGVSRATVTNWAARNSIDFRLLLDKLGNTVDYNWLLLGKGNPK,-0.221
7,HMKGIHDYITKDGLRVVKVHYSADPDKDVTTVEGKKWMAKALLGYPGGLEGAKWRREMEIDFNA,-0.0848
8,HMQILNVFSKHGIKPISPQIGDKFDPQLHEAMFEAPVPGTKAGDIIEVSSEGFMLYDRLLRPAHVGVSSN,0.0206
9,HMDAGLAEIIRSFEDNLGGFPPAAREDLLGWREIFTDDLILLAIKKAALAGVRKWSYVNGILKVWKNEGVR,-0.742
10,HMGFLTKTQRLEILLHLKDEPYYNVEKLKELIKNRYGIVYQSSQSYYDLLKEAGLSWHQTQA,-0.64
11,HMQPETIEDATNLYLEAARATLQLIEQNNVIARDVKRLLEHLDNDMARIETLLAEMLSRRDHWLRHIH,-0.12
12,HMENEIFVPKVFMDWYNKVDKSIKVFKAFNLIEKETDPRLKEWVEDNQDEFAKIWLGQLLPVV,-0.0598
13,HMYFGNSLFQARKRSGLSQEGVAEKLGVSRQTVSKWETGETVPDIYQSKKMARLYGVSLDEL,0.0951
14,HMEILTLEELKRLMAKAKLKQNQISGHAGVSKQQISMILAGKRNITKDVSDNLKANLAEYFP,-0.462
15,HMDINIETLNYYVGKAKIPLSELRISVKNIDLFLSGEKQPTFNQLSSIAKKLNIPTGLLLLDESIEV,-2.74
16,HMANLAQITKTNAVALALKDVGAYNSEDLMKFIDLDKVVLGEDGKPQLEDTINSLKESSPYLFQ,0.0767
17,HMKELASKYEISEYMKFLIENLDKSNFFYPIEKRESMINNIFSIYSKADLSKKELNMLWGMLKKLR,-2.1
18,HMDGEINPYTGREYVTNSVRMHPRRIGYVQVYSRKDHKWTDMTEWAFLGEQERKKVLLGKAYEPPVYL,-1.55
19,HMNFTMERLYTKELTSEDIDEIKKELNSMGYTEGVEFNIIKGDKTSFIMAERQLKAKMLSHLSDLGLPRGA,-0.152
